Source: patent US20150037328A1 (Pfizer, published 2015)
Where a chain is given by its changes, count along the chain named. Names may count otherwise.

B1: humanized anti-CXCR4 antibody h3G10.2.37.2.72 (antibody, V domains shown)
VH: EVQLVESGGGLVQPGGSLRLSCAASGFTFSDYYMSWVRQAPGKGLEWVGFIRHKANFYTREYSTSVKGRFTISRDDSKNSLYLQMNSLKTEDTAVYYCARDLPGFAYWGQGTLVTVSS
VL: DIVMTQSPDSLAVSLGERATINCKSSQSLFNSRTRKNYLAWYQQKPGQPPKLLIYWASARESGVPDRFSGSGSGTDFTLTISSLQAEDVAVYYCKQSFRLRTFGGGTKVEIK
B2: humanized anti-CXCR4 antibody h3G10.A57.A58A (antibody, V domains shown)
VH: B1 VH with R60T
VL: B1 VL with R33H, E61G
B3: h3G10.A57 VH / h3G10.2.72 VL Fab (Fab, V domains shown)
VH: B1 VH with R60T
VL: B1 VL
notes: Tested as Fab
B4: h3G10.A57 VH / h3G10.A58A VL Fab (Fab, V domains shown)
VH: B1 VH with R60T
VL: B1 VL with R33H, E61G
notes: Tested as Fab
B5: h3G10 VH / h3G10 VL Fab (Fab, V domains shown)
VH: B1 VH with F57G, R60T
VL: B1 VL with R99N
notes: Tested as Fab; also called h3G10 Fab
B6: h3G10.1.91 VH / h3G10.A58B VL Fab (Fab, V domains shown)
VH: B1 VH with Y58E, R60T
VL: B1 VL with R33H, E61G, R99N
notes: Tested as Fab
B7: h3G10.2.37 VH / h3G10.A58A VL Fab (Fab, V domains shown)
VH: B1 VH
VL: B1 VL with R33H, E61G
notes: Tested as Fab
B8: h3G10.2.37 VH / h3G10.A58B VL Fab (Fab, V domains shown)
VH: B1 VH
VL: B1 VL with R33H, E61G, R99N
notes: Tested as Fab
B9: h3G10.A57 VH / h3G10.A58B VL Fab (Fab, V domains shown)
VH: B1 VH with R60T
VL: B1 VL with R33H, E61G, R99N
notes: Tested as Fab
B10: h3G10.2.37 VH / h3G10.2.72 VL Fab (Fab, V domains shown)
VH: B1 VH
VL: B1 VL
notes: Tested as Fab
B11: h3G10.1.91 VH / h3G10.A58A VL Fab (Fab, V domains shown)
VH: B1 VH with Y58E, R60T
VL: B1 VL with R33H, E61G
notes: Tested as Fab
B12: h3G10.1.91 VH / h3G10.2.72 VL Fab (Fab, V domains shown)
VH: B1 VH with Y58E, R60T
VL: B1 VL
notes: Tested as Fab
B13: h3G10.A57 VH / h3G10 VL Fab (Fab, V domains shown)
VH: B1 VH with R60T
VL: B1 VL with R99N
notes: Tested as Fab; also called h3G10.A57 VH / h3G10 L
B14: h3G10.1.60 VH / h3G10.2.72 VL Fab (Fab, V domains shown)
VH: B1 VH with F57V, R60T
VL: B1 VL
notes: Tested as Fab
B15: h3G10.B44 VH / h3G10.A58A VL Fab (Fab, V domains shown)
VH: B1 VH with G49S, R60T, D76N, S80T, K89R, T90A, R100K
VL: B1 VL with R33H, E61G
notes: Tested as Fab
B16: h3G10.2.45 VH / h3G10.2.72 VL Fab (Fab, V domains shown)
VH: B1 VH with R60T, S65W
VL: B1 VL
notes: Tested as Fab
B17: h3G10.2.54 VH / h3G10.2.72 VL Fab (Fab, V domains shown)
VH: B1 VH with R60T, K67R
VL: B1 VL
notes: Tested as Fab
B18: h3G10.1.7 VH / h3G10.2.72 VL Fab (Fab, V domains shown)
VH: B1 VH with F57K, R60T
VL: B1 VL
notes: Tested as Fab
B19: h3G10.2.42 VH / h3G10.2.72 VL Fab (Fab, V domains shown)
VH: B1 VH with A55V, R60T
VL: B1 VL
notes: Tested as Fab
B20: h3G10.1.33 VH / h3G10.2.72 VL Fab (Fab, V domains shown)
VH: B1 VH with R60T, K67T
VL: B1 VL
notes: Tested as Fab
B21: h3G10.2.5 VH / h3G10.2.72 VL Fab (Fab, V domains shown)
VH: B1 VH with F57I, R60T
VL: B1 VL
notes: Tested as Fab
B22: h3G10.3.25 VH / h3G10.2.72 VL Fab (Fab, V domains shown)
VH: B1 VH with R60T, V66D
VL: B1 VL
notes: Tested as Fab
B23: h3G10.A57 VH / h3G10.2.25 VL Fab (Fab, V domains shown)
VH: B1 VH with R60T
VL: B1 VL with K24R
notes: Tested as Fab
B24: humanized anti-CXCR4 antibody h3G10 (antibody, V domains shown)
VH: B1 VH with F57G, R60T
VL: B1 VL with R99N
B25: humanized anti-CXCR4 antibody h3G10.A57 (antibody, V domains shown)
VH: B1 VH with R60T
VL: B1 VL with R99N
B26: humanized anti-CXCR4 antibody h3G10.1.91.A58A (antibody, V domains shown)
VH: B1 VH with Y58E, R60T
VL: B1 VL with R33H, E61G

Target: T1, human CXCR4 (chemokine (C-X-C motif) receptor 4) (human, UniProt P61073 1-352)
Assay: cell-based or functional assay

T1 sequence (P61073 whole entry): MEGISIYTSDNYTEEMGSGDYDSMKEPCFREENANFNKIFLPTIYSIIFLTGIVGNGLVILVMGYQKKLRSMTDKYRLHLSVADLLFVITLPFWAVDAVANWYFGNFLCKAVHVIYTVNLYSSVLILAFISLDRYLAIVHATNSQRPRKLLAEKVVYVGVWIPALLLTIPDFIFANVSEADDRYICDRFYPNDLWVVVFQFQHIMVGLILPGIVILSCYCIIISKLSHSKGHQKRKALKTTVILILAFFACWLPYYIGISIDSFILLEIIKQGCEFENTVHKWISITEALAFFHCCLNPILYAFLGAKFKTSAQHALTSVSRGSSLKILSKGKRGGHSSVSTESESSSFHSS

Binder	EC50 (M), cAMP assay, CHO-K1 cells transfected with human CXCR4 [M]
B1	3.41e-08
B2	2.43e-08

Target: T1, human CXCR4 (chemokine (C-X-C motif) …)
Assay: flow cytometry on HPB-ALL cells, Fab at 0.25 µg/mL
Procedure: Binding of CXCR4 Fabs to CXCR4-expressing cells were measured by flow cytometry on HPB-ALL (Human T cell leukemia) cells. 150,000 HPB-ALL cells were resuspended in 100 uL FACS buffer (1×PBS+0.5% BSA) on 96 well plates. […] After removing the primary antibodies the cells were washed twice with FACS buffer and then resuspended in FACS buffer and 2 uL (3 ug) of 2nd Ab (Alexa Fluor 647-conjugated goat anti-human IgG, F(ab′)2 specific, Jackson ImmunoResearch Laboratories, West Grove Pa.) was then added to each well. The plates were incubated at 4 degree for another 30 min. Fluorescence signals were acquired by cell analyzer LSRII (BD Biosciences, San Jose Calif.).

Binder	MFI
B3	2770
B4	3890
B5	1360
B6	4630
B7	4070
B8	4550
B9	3090
B10	2890
B11	5050
B12	2350
B13	1340

Target: T2, human CXCR4-enriched lipoparticles (LEV101, Integral Molecular) (human, UniProt P61073 1-352)
T2 construct: Bought reagent; CXCR4 held in lipoparticles captured by biotinylated WGA on an SA chip; also called Lipoparticles containing CXCR4 proteins
Assay: biosensor kinetic titration, Fab over captured human CXCR4 lipoparticles
Procedure: The binding affinity of each Fab was determined using human CXCR4-enriched lipoparticles (LEV101, Integral Molecular, Philadelphia Pa.). Biotinylated WGA (Sigma Aldrich, St. Louis Mo.)) can be coated on the SA chip to facilitate capturing lipoparticles containing CXCR4 proteins. […] J. Mol. Recognit.

T2 sequence (P61073 whole entry): as above

Binder	Kd [nM]	koff [s⁻¹]	kon [M⁻¹ s⁻¹]	t½ [min]
B3	1.12	0.0013	1.1e+06	9
B4	0.39	0.00063	1.6e+06	18.2
B5	1.9	0.003	1.6e+06	3.9
B6	0.36	0.000286	803000	40.4
B7	0.32	0.000418	1.29e+06	27.6
B8	0.56	0.000449	797000	25.7
B9	0.75	0.000515	688000	22.4
B10	0.35	0.0008	2.3e+06	14.4
B11	0.38	0.000341	908000	33.9
B12	0.33	0.00049	1.5e+06	23.5
B13	1.22	0.00143	1.17e+06	8.08

Target: T1, human CXCR4 (chemokine (C-X-C motif) …)
Assay: flow cytometry on HPB-ALL cells, Fab at 2.5 µg/ml

Binder	MFI
B3	4330
B4	7400
B14	2810
B15	9410
B16	2780
B17	4610
B5	2460
B18	4120
B19	4720
B20	4140
B10	6240
B21	2790
B12	7020
B22	2680
B13	4060
B23	5000

Target: T1, human CXCR4 (chemokine (C-X-C motif) …)
Assay: cell-based or functional assay
Remark: another data set of the same source

Binder	IC50 (M), Calcium Flux Activity (average of 3 experiments) [M]
B24	2e-09
B25	1.69e-09
B26	2.35e-09
B1	1.36e-09
B2	1.31e-09

Target: T1, human CXCR4 (chemokine (C-X-C motif) …)
Assay: flow cytometry on HPB-ALL cells, Fab at 0.25 µg/ml

Binder	MFI
B3	1220
B4	3610
B14	396
B15	5120
B16	929
B17	1740
B5	563
B18	768
B19	1760
B20	848
B10	2920
B21	390
B12	2670
B22	454
B13	868
B23	1380
